The supplement of paper PMC9112550, “Optimization of the antimicrobial peptide Bac7 by deep mutational scanning” (BMC Biology, 2022)

tested on: Escherichia coli TOP10; test: shrunken log2 fold change of peptide-encoding DNA abundance (4.5 h post-induction vs induction); higher = less antimicrobial activity (less host growth inhibition); settings: time post-induction: 4.5 h; library: site-saturation at positions 5, 18, 19, 20
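Also: peptides expressed intracellularly from a pBAD plasmid library in pooled LB shake-flask culture, induced with 0.3% L-arabinose, DNA abundance read by NGS, three biological replicates, DESeq2 with apeglm shrinkage.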

Sequence | shrunken log2 fold change
RRIRVRPPRLPRPRPRPDRSPRP | -0.039
RRIRWRPPRLPRPRPRPSLWPRP | 0.575
RRIRVRPPRLPRPRPRPRFKPRP | 0.107
RRIRERPPRLPRPRPRPPMIPRP | -0.0526
RRIRCRPPRLPRPRPRPGIIPRP | -0.00738
RRIRARPPRLPRPRPRPPMCPRP | 0.00915
RRIRQRPPRLPRPRPRPLLDPRP | 0.525
RRIRARPPRLPRPRPRPEPNPRP | 1.16
RRIRTRPPRLPRPRPRPAFNPRP | -0.121
RRIRARPPRLPRPRPRPSGDPRP | 0.15
RRIRRRPPRLPRPRPRPHLIPRP | -0.293
RRIRIRPPRLPRPRPRPDQRPRP | 0.0228
RRIRQRPPRLPRPRPRPVMAPRP | -0.38
RRIRWRPPRLPRPRPRPATEPRP | 0.479
RRIRKRPPRLPRPRPRPWAPPRP | 0.0466
RRIRARPPRLPRPRPRPQFVPRP | -0.0892
RRIRIRPPRLPRPRPRPDFMPRP | -0.661
RRIRPRPPRLPRPRPRPGKNPRP | -0.00164
RRIRIRPPRLPRPRPRPISEPRP | -0.492
RRIRMRPPRLPRPRPRPHHEPRP | -0.00212
RRIRTRPPRLPRPRPRPLSPPRP | 0.0169
RRIRCRPPRLPRPRPRPKSSPRP | 0.122
RRIRERPPRLPRPRPRPAEWPRP | 0.143
RRIRRRPPRLPRPRPRPDGPPRP | 0.215
RRIRIRPPRLPRPRPRPSGAPRP | 0.0148

Sequence | shrunken log2 fold change
RRIRRRPPRLPRPRPRPSNAPRP | 0.204
RRIRLRPPRLPRPRPRPMDVPRP | 0.0104
RRIRQRPPRLPRPRPRPVNNPRP | -0.0612
RRIRMRPPRLPRPRPRPGMLPRP | -0.0146
RRIRNRPPRLPRPRPRPSFNPRP | -0.143
RRIRYRPPRLPRPRPRPWTWPRP | -0.106
RRIRRRPPRLPRPRPRPTRFPRP | 1.08
RRIRARPPRLPRPRPRPNCMPRP | -0.421
RRIRPRPPRLPRPRPRPDPWPRP | -0.0279
RRIRKRPPRLPRPRPRPYWSPRP | -0.153
RRIRQRPPRLPRPRPRPTYIPRP | -0.0622
RRIRDRPPRLPRPRPRPCFIPRP | -0.13
RRIRIRPPRLPRPRPRPPFVPRP | 0.104
RRIRERPPRLPRPRPRPRGYPRP | -0.1
RRIRPRPPRLPRPRPRPQNMPRP | -0.358
RRIRMRPPRLPRPRPRPSAPPRP | 0.51
RRIRKRPPRLPRPRPRPCNEPRP | -0.00256
RRIRDRPPRLPRPRPRPCMEPRP | -0.0179
RRIRSRPPRLPRPRPRPEHGPRP | -0.0838
RRIRTRPPRLPRPRPRPWMTPRP | -0.0339
RRIRSRPPRLPRPRPRPGQVPRP | -0.0247
RRIRVRPPRLPRPRPRPIVKPRP | -0.0955
RRIRLRPPRLPRPRPRPMPRPRP | 0.291
RRIRGRPPRLPRPRPRPWGIPRP | 0.0344
RRIRWRPPRLPRPRPRPITKPRP | 0.258

Sequence | shrunken log2 fold change
RRIRCRPPRLPRPRPRPEYEPRP | -0.108
RRIRTRPPRLPRPRPRPIVVPRP | -9.82e-05
RRIRSRPPRLPRPRPRPGHVPRP | 0.1
RRIRVRPPRLPRPRPRPECHPRP | 0.241
RRIRDRPPRLPRPRPRPFCVPRP | 0.483
RRIRWRPPRLPRPRPRPDKRPRP | -0.00125
RRIRQRPPRLPRPRPRPAEKPRP | -0.00963
RRIRSRPPRLPRPRPRPIGGPRP | -0.0412
RRIRSRPPRLPRPRPRPSMCPRP | -0.146
RRIRFRPPRLPRPRPRPMHGPRP | -0.0727
RRIRWRPPRLPRPRPRPWHMPRP | 0.219
RRIRRRPPRLPRPRPRPSWAPRP | 0.157
RRIRSRPPRLPRPRPRPACKPRP | -0.146
RRIRNRPPRLPRPRPRPARLPRP | 0.184
RRIRARPPRLPRPRPRPFWMPRP | 1.14
RRIRYRPPRLPRPRPRPDFMPRP | -2.08
RRIRYRPPRLPRPRPRPPKFPRP | -0.0892
RRIRIRPPRLPRPRPRPLIDPRP | -0.42
RRIRFRPPRLPRPRPRPMSQPRP | 0.0397
RRIRVRPPRLPRPRPRPVSNPRP | -0.0653
RRIRPRPPRLPRPRPRPFRAPRP | 0.116
RRIRDRPPRLPRPRPRPCDGPRP | -0.0192
RRIRYRPPRLPRPRPRPDTFPRP | -0.016
RRIRRRPPRLPRPRPRPAANPRP | 3
RRIRCRPPRLPRPRPRPYRQPRP | 0.00128

Sequence | shrunken log2 fold change
RRIRLRPPRLPRPRPRPRANPRP | 0.126
RRIRPRPPRLPRPRPRPMEIPRP | -0.00192
RRIRMRPPRLPRPRPRPPHIPRP | -0.0498
RRIRRRPPRLPRPRPRPARKPRP | 0.58
RRIRLRPPRLPRPRPRPSFPPRP | -0.159
RRIRKRPPRLPRPRPRPKTPPRP | 0.477
RRIRWRPPRLPRPRPRPEFIPRP | 0.186
RRIRKRPPRLPRPRPRPFENPRP | 0.167
RRIRCRPPRLPRPRPRPITGPRP | -0.213
RRIRCRPPRLPRPRPRPCRNPRP | -0.154
RRIRNRPPRLPRPRPRPPKCPRP | 0.189
RRIRSRPPRLPRPRPRPEPAPRP | 0.912
RRIRYRPPRLPRPRPRPNMSPRP | -0.675
RRIRPRPPRLPRPRPRPIGNPRP | -0.0419
RRIRCRPPRLPRPRPRPRRFPRP | 0.338
RRIRFRPPRLPRPRPRPMEYPRP | 0.0429
RRIRYRPPRLPRPRPRPSLTPRP | -0.628
RRIRWRPPRLPRPRPRPPDKPRP | 0.423
RRIRDRPPRLPRPRPRPRQRPRP | 0.708
RRIRPRPPRLPRPRPRPFSTPRP | -0.317
RRIRDRPPRLPRPRPRPVKSPRP | -0.00931
RRIRMRPPRLPRPRPRPMLEPRP | 0.0346
RRIRFRPPRLPRPRPRPEFPPRP | -0.132
RRIRCRPPRLPRPRPRPFDAPRP | 0.0524
RRIRLRPPRLPRPRPRPETHPRP | 0.161

Sequence | shrunken log2 fold change
RRIRFRPPRLPRPRPRPDFWPRP | 0.0889
RRIRYRPPRLPRPRPRPAEVPRP | -0.0361
RRIRFRPPRLPRPRPRPNKWPRP | -0.266
RRIRGRPPRLPRPRPRPCFDPRP | 0.299
RRIRNRPPRLPRPRPRPREDPRP | 0.102
RRIRPRPPRLPRPRPRPQRQPRP | 0.109
RRIRLRPPRLPRPRPRPHDPPRP | -0.459
RRIRKRPPRLPRPRPRPATHPRP | 0.426
RRIRYRPPRLPRPRPRPHKYPRP | -1.08
RRIRCRPPRLPRPRPRPECLPRP | -0.109
RRIRLRPPRLPRPRPRPPCYPRP | 0.00883
RRIRIRPPRLPRPRPRPPMEPRP | -0.0294
RRIRRRPPRLPRPRPRPRGLPRP | 0.396
RRIRHRPPRLPRPRPRPHLKPRP | -0.124
RRIRRRPPRLPRPRPRPLNDPRP | 0.0468
RRIRLRPPRLPRPRPRPQEMPRP | -0.0408
RRIRNRPPRLPRPRPRPYECPRP | -0.177
RRIRYRPPRLPRPRPRPPITPRP | -0.834
RRIRWRPPRLPRPRPRPTSSPRP | 0.23
RRIRKRPPRLPRPRPRPYFQPRP | -0.265
RRIRSRPPRLPRPRPRPMMTPRP | -0.0968
RRIRFRPPRLPRPRPRPSKCPRP | -0.26
RRIRLRPPRLPRPRPRPWFKPRP | -0.86
RRIRYRPPRLPRPRPRPHSKPRP | -0.463
RRIRCRPPRLPRPRPRPTQMPRP | 0.565

Sequence | shrunken log2 fold change
RRIRTRPPRLPRPRPRPLYSPRP | -0.575
RRIRFRPPRLPRPRPRPQMQPRP | 0.203
RRIRFRPPRLPRPRPRPMGTPRP | -0.0834
RRIRKRPPRLPRPRPRPKQTPRP | 0.00774
RRIRRRPPRLPRPRPRPMRWPRP | 0.638
RRIRPRPPRLPRPRPRPQWSPRP | -0.226
RRIRIRPPRLPRPRPRPCRPPRP | -0.0283
RRIRIRPPRLPRPRPRPYEAPRP | -0.18
RRIRERPPRLPRPRPRPGMQPRP | -0.328
RRIRPRPPRLPRPRPRPMHTPRP | -0.0538
RRIRYRPPRLPRPRPRPFSWPRP | -0.235
RRIRYRPPRLPRPRPRPLVIPRP | -0.782
RRIRWRPPRLPRPRPRPHQCPRP | -0.112
RRIRDRPPRLPRPRPRPDMIPRP | 0.0954
RRIRLRPPRLPRPRPRPKAWPRP | -0.0115
RRIRARPPRLPRPRPRPAQPPRP | 0.723
RRIRIRPPRLPRPRPRPEFSPRP | 0.00834
RRIRSRPPRLPRPRPRPTLPPRP | 0.212
RRIRWRPPRLPRPRPRPDLIPRP | 0.0332
RRIRQRPPRLPRPRPRPKFMPRP | -0.18
RRIRWRPPRLPRPRPRPSHAPRP | -0.0866
RRIRIRPPRLPRPRPRPFAWPRP | 0.00684
RRIRMRPPRLPRPRPRPSTQPRP | 0.148
RRIRWRPPRLPRPRPRPESMPRP | 0.636
RRIRVRPPRLPRPRPRPNSRPRP | 0.00966
